These results are taken from paper PMC5937737, “RIT1 controls actin dynamics via complex formation with RAC1/CDC42 and PAK1” (PLoS Genetics, 2018).

Common to all, as to assay: pull-down; in-vitro binding assay: GST fusion protein (1 μM) on glutathione agarose mixed with His-RIT1 (0.5 μM or a concentration series) loaded with GDP or GTPγS; 20 mM Tris-HCl, 100 mM NaCl, 0.1% Triton X-100, 1 mM DTT, 100 mM MgCl2; 30 min at room temperature; anti-His immunoblot
Settings in all cases: both partners purified
In general terms: Immunoblotting shows a protein as a band on a membrane.

The target in test [1] is T1, His-RIT1^WT (amino acids 1-201) (human, UniProt Q92963-1 1-201).
T1 construct: RIT1, human; loaded with GDP or non-hydrolyzable GTPγS before the assay; also called His-tagged RIT1; recombinant His-tagged RIT1 wildtype; source: E. coli BL21 (pET151/D-TOPO-RIT1^WT), purified
T1 sequence (Q92963 1-201): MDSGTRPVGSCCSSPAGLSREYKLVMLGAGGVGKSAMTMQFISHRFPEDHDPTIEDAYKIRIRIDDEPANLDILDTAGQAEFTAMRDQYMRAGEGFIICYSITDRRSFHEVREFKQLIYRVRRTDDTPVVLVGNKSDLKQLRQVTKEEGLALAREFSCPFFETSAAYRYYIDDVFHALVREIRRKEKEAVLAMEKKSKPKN

The target of test [2] is T2, His-RIT1^F82L (amino acids 1-201) (human, UniProt Q92963-1 1-201, F82L).
T2 construct: RIT1, human; Noonan syndrome-associated substitution in switch II; loaded with GDP or non-hydrolyzable GTPγS before the assay; also called RIT1 mutant p.F82L (recombinant); source: E. coli BL21 (pET151/D-TOPO-RIT1^F82L), purified
T2 sequence (Q92963 1-201 F82L): as the sequence (Q92963 1-201) above, with F82L counted along it

Test [3] has as its target T3, His-RIT1^A57G (amino acids 1-201) (human, UniProt Q92963-1 1-201, A57G).
T3 construct: RIT1, human; Noonan syndrome-associated substitution in switch I; loaded with GDP or non-hydrolyzable GTPγS before the assay; also called RIT1 mutant p.A57G (recombinant); source: E. coli BL21 (pET151/D-TOPO-RIT1^A57G), purified

T3 sequence (Q92963 1-201 A57G): as the sequence (Q92963 1-201) above, with A57G counted along it

B1: GST-CDC42 (amino acids 1-178) (domain or fragment)
chain: not shown
notes: CDC42, amino acids 1-178; loaded with GDP or GTPγS before the assay; source: E. coli BL21 (pGEX-4T3-CDC42), isolated, coupled to glutathione agarose beads
Take B1: the binding result in test [1] is listed as “binds”.

B2: GST-PAK[CRIB] (domain or fragment, UniProt Q13153 58-141, looked up)
chain: ILPGDKTNKKKEKERPEISLPSDFEHTIHVGFDAVTGEFTGMPEQWARLLQTSNITKSEQKKNPQAVLDVLEFYNSKKTSNSQK
notes: PAK1, CRIB domain, amino acids 58-141; source: E. coli BL21 (pGEX-2TK-PAK[CRIB]), isolated, coupled to glutathione agarose beads
Consider B2, for which the binding result in test [2], in test [3] and in test [1] was “binds” in each case.
